The values below come from PMC8694150, “Characterization of NucPNP and NucV involved in the early steps of nucleocidin biosynthesis in Streptomyces calvus” (RSC Advances, 2021).

One series concerns the target T1, NucV (Streptomyces calvus, UniProt A0A142C6V8).
T1 construct: gene apt; N-terminal 6-His tag kept; expressed in E. coli BL21(DE3)
Nature of the series: HPLC of AMP formation, Michaelis-Menten fit. The settings on record: 10 mM MgCl2, 50 mM Tris-HCl, 150 mM NaCl, pH 7.5, room temperature, apparent. Type of series: biochemical. The text has this:
HPLC of AMP formation, Michaelis-Menten fit on NucV

A further series deals with T2, ScAPRT (Streptomyces calvus, UniProt A0A514K045).
T2 construct: gene apt; N-terminal 6-His tag kept; expressed in E. coli BL21(DE3); housekeeping APRT, not NucV
T2 sequence (A0A514K045 entry or part of it): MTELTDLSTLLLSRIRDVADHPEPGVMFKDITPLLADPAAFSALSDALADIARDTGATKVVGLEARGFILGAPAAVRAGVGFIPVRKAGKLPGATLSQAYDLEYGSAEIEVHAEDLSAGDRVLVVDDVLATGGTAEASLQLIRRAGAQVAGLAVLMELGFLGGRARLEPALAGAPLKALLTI
The series can be described thus: HPLC of AMP formation, Michaelis-Menten fit. Type of series: biochemical. To be noted: 10 mM MgCl2, 50 mM Tris-HCl, 150 mM NaCl, pH 7.5, room temperature, apparent. The text has this: HPLC of AMP formation, Michaelis-Menten fit on ScAPRT

Series [1] deals with T3, Nc1ncnc2c1ncn2[C@@H]1O[C@H](CO)[C@@H](O)[C@H]1O.
T3 construct: expressed in E. coli SHuffle T7 Express lysY; amylose then Ni-NTA
The series can be described thus: purified protein. Type of series: biochemical, Streptomyces calvus. To be noted: 10 mM phosphate, 50 mM Tris-HCl, 150 mM NaCl, pH 7.5, room temperature, apparent. From the text:
(§1) HPLC of adenine formation, Michaelis-Menten fit on MBP-NucPNP

Series [2] deals with T4, CSC[C@H]1O[C@@H](n2cnc3c(N)ncnc32)[C@H](O)[C@@H]1O.
T4 construct: expressed in E. coli SHuffle T7 Express lysY; amylose then Ni-NTA
Nature of the series: purified protein. The settings on record: 10 mM phosphate, 50 mM Tris-HCl, 150 mM NaCl, pH 7.5, room temperature, apparent. It is filed as biochemical, Streptomyces calvus.
Description: as §1

Substrate in series [3]: O=P(O)(O)OC[C@H]1O[C@H](OP(=O)(O)OP(=O)(O)O)[C@H](O)[C@@H]1O
The series can be described thus: HPLC of AMP formation, Michaelis-Menten fit. Type of series: biochemical, Escherichia coli. To be noted: 500 μM adenine, 10 mM MgCl2, 50 mM Tris-HCl, 150 mM NaCl, pH 7.5, room temperature, apparent.

Substrate in the series “purified protein”: Nc1ncnc2nc[nH]c12
Nature of the series: purified protein. To be noted: 500 μM PRPP, 10 mM MgCl2, 50 mM Tris-HCl, 150 mM NaCl, pH 7.5, room temperature, apparent.

Broadly, the Km is the concentration of substrate that gives half-maximal velocity. Broadly, the kcat is the number of substrate molecules converted per active site and unit of time at saturation. By kcat/Km is commonly meant the turnover number divided by the Michaelis constant.

T1 sequence (A0A142C6V8 entry or part of it): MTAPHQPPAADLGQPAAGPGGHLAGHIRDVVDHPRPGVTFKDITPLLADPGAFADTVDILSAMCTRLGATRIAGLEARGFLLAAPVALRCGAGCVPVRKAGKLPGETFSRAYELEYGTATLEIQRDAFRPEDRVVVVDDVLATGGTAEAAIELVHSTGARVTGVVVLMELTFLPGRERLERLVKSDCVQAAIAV

In the case of `Nc1ncnc2nc[nH]c12` [compound 3, adenine], the Km on NucV (500 μM PRPP) came to 6.8 ± 1.4 µM; on ScAPRT (500 μM PRPP), 2.8 ± 0.6 µM.
As for `O=P(O)(O)OC[C@H]1O[C@H](OP(=O)(O)OP(=O)(O)O)[C@H](O)[C@@H]1O` [compound 5, 5-phospho-α-D-ribose-1-diphosphate], the values for the Km on NucV (500 μM adenine) and at ScAPRT (500 μM adenine) were 21.4 ± 3 µM and 9.8 ± 2 µM, respectively.
For MBP-NucPNP (Streptomyces calvus), in series [1], the Michaelis constant (Km) is 90.3 ± 8.2 µM, the kcat is 0.49 ± 0.02 s⁻¹ and the kcat/Km amounted to 5500 M⁻¹ s⁻¹. For the same molecule, in series [2], the Km is 43.5 ± 4.1 µM, the kcat is 0.15 ± 0.01 s⁻¹ and the kcat/Km was determined as 3400 M⁻¹ s⁻¹.

B1: EcAPRT (Escherichia coli K-12) (protein)
chain: MTATAQQLEYLKNSIKSIQDYPKPGILFRDVTSLLEDPKAYALSIDLLVERYKNAGITKVVGTEARGFLFGAPVALGLGVGFVPVRKPGKLPRETISETYDLEYGTDQLEIHVDAIKPGDKVLVVDDLLATGGTIEATVKLIRRLGGEVADAAFIINLFDLGGEQRLEKQGITSYSLVPFPGH
notes: N-terminal 6-His tag kept; expressed in E. coli BL21(DE3)
With B1, the Km stood at 46.4 ± 9.0 µM in series [3] and 9.6 ± 2.5 µM in “purified protein”. Further, the kcat in series [3] stood at 15.9 ± 1.3 s⁻¹; in “purified protein”, 27.3 ± 1.9 s⁻¹.
